In this data set the target is Complement C1q (Homo sapiens) (UniProt P02745+P02746+P02747). Briefly: filter. Conditions: 2'-NH2 C and U; MgPBS, 37 C; starting pool.
Chain of Complement C1q (Homo sapiens) (P02745 23-245, chain 1 of 3): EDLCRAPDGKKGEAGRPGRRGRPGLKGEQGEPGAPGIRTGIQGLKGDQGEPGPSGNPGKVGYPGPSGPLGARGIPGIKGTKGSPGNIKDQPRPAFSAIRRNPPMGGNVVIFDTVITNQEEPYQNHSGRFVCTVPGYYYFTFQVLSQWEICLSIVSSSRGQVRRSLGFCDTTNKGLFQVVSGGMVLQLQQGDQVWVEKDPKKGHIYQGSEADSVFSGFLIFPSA
Chain of Complement C1q (Homo sapiens) (P02746 28-253, chain 2 of 3): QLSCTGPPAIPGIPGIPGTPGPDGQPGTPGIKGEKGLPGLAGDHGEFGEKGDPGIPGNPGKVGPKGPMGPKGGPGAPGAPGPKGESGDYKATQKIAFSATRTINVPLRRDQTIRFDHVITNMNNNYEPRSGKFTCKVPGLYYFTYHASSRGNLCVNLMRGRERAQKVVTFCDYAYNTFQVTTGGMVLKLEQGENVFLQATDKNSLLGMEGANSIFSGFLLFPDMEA
Chain of Complement C1q (Homo sapiens) (P02747 29-245, chain 3 of 3): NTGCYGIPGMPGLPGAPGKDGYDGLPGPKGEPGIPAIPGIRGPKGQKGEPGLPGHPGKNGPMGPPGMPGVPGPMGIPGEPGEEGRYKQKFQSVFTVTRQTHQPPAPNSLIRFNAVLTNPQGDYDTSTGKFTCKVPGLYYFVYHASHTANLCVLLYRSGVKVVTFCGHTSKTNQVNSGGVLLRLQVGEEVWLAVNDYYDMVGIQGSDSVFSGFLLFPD

Take “GGGAGGACGAUGCGGNNNNNNNNNNNNNNNNNNNNNNNNNNNNNNNNNNNNNNNNNNNNNNNNNNCAGACGACUCGCCCGA [random 50N7 2'-NH2 RNA pool]”: the dissociation constant Kd (as a rule, the concentration at which binding is half-saturated) was 2300 nM.
